Literature values as cited in PMC7955094.

Tests used:
His19 = His19 (UniProt position 19, ILSALHFMAWT); conditions: membrane-bound H27A BM2 tetramer
His37 = His37 (UniProt position 37, IIGILHLILWI); conditions: AM2 tetramer

Substance	pKa (His19)	pKa (His37)
Influenza B virus M2 protein (BM2) H27A mutant (Influenza B virus (strain of the quoted study not stated); H27A)	5.6	–
Influenza A virus M2 protein (AM2) proton channel (Influenza A virus (strain not stated))	–	5.9
